Key:
[1] = molecular target: biotinylated peptide X-…(biotin), X = F; test: phage ELISA, biotinylated peptide on neutravidin; phage 10×
[2] = molecular target: biotinylated peptide X-…(biotin), X = Y; test: as above
[3] = molecular target: biotinylated peptide X-…(biotin), X = F; test: phage ELISA, biotinylated peptide on neutravidin
[4] = molecular target: biotinylated peptide X-…(biotin), X = Y; test: phage ELISA, biotinylated peptide on neutravidin

Substance: Phage displayed wild-type E. coli ClpS (truncated wildtype ClpS polypeptide, FLAG-tagged, fused to phage coat protein p3) (from UniProt A7ZJU9 23-106)
- phage ELISA signal (A450) [1]: 1.81
- phage ELISA signal (A450) [2]: 1.08
- phage ELISA signal (A450) [3]: 1.81
- phage ELISA signal (A450) [4]: 1.08

Reference: patent US9566335
